Source: patent publication US20120172298A1, “GLP-1 AND FGF21 COMBINATIONS FOR TREATMENT OF DIABETES TYPE 2” (Novo Nordisk A/S, priority 2009, published 2012)

Assays:
[1] = system: rat insulinoma beta-cells (INS-1); test: Cell viability of INS-1 beta-cells exposed to free fatty acids (MTT assay); type: cell-based; settings: 48 hours, FGF21 compound = F1 50 nM, GLP-1 compound = G1 50 nM, mean +/- SEM
Experimental: (§1) This ex vivo example investigates the influence of FGF21 and GLP-1 compounds on FFA (free fatty acid) induced apoptosis of rat insulinoma beta-cells (INS-1).
(§2) Compound F1 (Prospec, cat. no. CYT-474) was used as the FGF21 compound, and compound G1 was used as the GLP-1 compound.
(§3) INS-1 cells were seeded in 96-well plates (50000 cells/well) and incubated overnight in cell medium (RPMI 1640 medium (Gibco, cat. no. 61870-010), supplemented with 10% FCS (Gibco, cat. no. 10085-140), 1% Pen/Strep (Gibco, cat. no. 15140-114) and 0.5 ml beta-mercaptoethanol (Gibco, cat. no. 31350-010 (50 mM)). The FGF21 compound (50 nM) and the GLP-1 compound (50 nM) were added to the cells 1 hour before the cells were to be exposed to FFA. The FFA's were prepared as follows: Stock solutions of palmitic acid (Sigma P5585) and oleic acid (Sigma 01383) of 1M in DMSO were mixed 1:2 and heated to 60 degree Celsius. The FFA mix was then diluted 10 times in 0.1M NaOH. This mixture was then further diluted in cell medium to yield a FFA concentration of 1 mM. The FFAs were then added to the cells to a final concentration of 0.35 mM. […]

[2] = system: rat insulinoma beta-cells (INS-1); test: FFA induced apoptosis of INS-1 beta-cells (Caspase-3/7 assay); type: cell-based; settings: 48 hours, FGF21 compound = F1 50 nM, GLP-1 compound = G1 50 nM, mean +/- SEM
Experimental: as §1, §2, §3

[3] = system: rat insulinoma beta-cells (INS-1); test: Insulin accumulated in the medium of INS-1 cells during 48 hour incubation with FFA; type: cell-based; settings: for Insulin accumulated in the medium: 48 hours, FGF21 compound = F1 50 nM, GLP-1 compound = G1 50 nM, mean +/- SEM
Experimental: as §1, §2
INS-1 cells were seeded in 96-well plates (50000 cells/well) and incubated overnight in cell medium (RPMI 1640 medium (Gibco, cat. no. 61870-010), supplemented with 10% FCS (Gibco, cat. no. 10085-140), 1% Pen/Strep (Gibco, cat. no. 15140-114) and 0.5 ml beta-mercaptoethanol (Gibco, cat. no. 31350-010 (50 mM)). The FGF21 compound (50 nM) and the GLP-1 compound (50 nM) were added to the cells 1 hour before the cells were to be exposed to FFA. The FFA's were prepared as follows: Stock solutions of palmitic acid (Sigma P5585) and oleic acid (Sigma 01383) of 1M in DMSO were mixed 1:2 and heated to 60 degree Celsius. The FFA mix was then diluted 10 times in 0.1M NaOH. This mixture was then further diluted in cell medium to yield a FFA concentration of 1 mM. The FFAs were then added to the cells to a final concentration of 0.35 mM. The cells were incubated for 48 hours and then the following three assays were performed: 1) Cell viability was assessed using the CellTiter 96® Non-radioactive Cell Proliferation Assay (MTT) from Promega, performed according to the manufacturer's instruction (absorbance at 550 nm, A550); 2) Apoptosis was assessed using the Apo-ONE® Homogeneous Caspase-3/7 Assay from Promega, performed according to the manufacturer's instruction (fluorescence); and 3) Insulin accumulated in the medium during the 48 hour incubation with FFA was analysed (as described in Example 3; ng/ml insulin).
The results of 1), 2) and 3) are shown in Tables 4, 5, and 6 below, respectively, all figures being mean+/−standard error of mean (SEM). […]

[4] = system: db/db mice; test: Effect on blood glucose in vivo, subchronic study in db/db mice; settings: F1 0.5 mg/kg, G1 30 nmol/kg or both
Experimental: This subchronic in vivo dosing study investigates the effect of GLP-1 and FGF21 compounds on blood glucose. The study was performed in db/db mice (as described in Example 5).
48 db/db mice, male, 11-12 weeks of age at study start.
Dosed subcutaneously 2 × daily with either (i) 0.5 mg/kg human FGF21 (compound F1; n=12); (ii) 30 nmol/kg of GLP-1 compound G1 (n=12); (iii) a combination of 0.5 mg/kg of compound F1 and 30 nmol/kg of compound G1 (n=12); or (iv) vehicle (sterile PBS buffer, n=12).
All groups were dosed for 21 days.
Blood samples of 10 μl were taken from the tip of the tail for blood glucose measurements once weekly.

B1: Met-FGF21_human (protein, listed as Homo sapiens)
chain: HPIPDSSPLLQFGGQVRQRYLYTDDAQQTEAHLEIREDGTVGGAADQSPESLLQLKALKPGVIQILGVKTSRFLCQRPDGALYGSLHFDPEACSFRELLLEDGYNVYQSEAHGLPLHLPGNKSPHRDPAPRGPARFLPLPGLPPALPEPPGILAPQPPDVGSSDPLSMVGPSQGRSPSYAS
modifications: N-terminal Met; mat_peptide (1)..(181); DISULFID (75)..(93)
Cell viability (MTT assay, A550) ([1]; FFA 0.00 mM): 1.19 +/− 0.05
Cell viability (MTT assay, A550) ([1]; FFA 0.35 mM): 0.28 +/− 0.01
Apoptosis (Caspase 3/7 assay, fluorescense) ([2]; FFA 0.00 mM): 1827 +/− 22
Apoptosis (Caspase 3/7 assay, fluorescense) ([2]; FFA 0.35 mM): 33278 +/− 1254
Insulin accumulated in the medium ([3]; FFA 0.00 mM): 1011 ± 112 ng/mL
Insulin accumulated in the medium ([3]; FFA 0.35 mM): 569 ± 14 ng/mL
stimulation of insulin release ([3]; absence of free fatty acids, F1 50 nM): does not stimulate insulin release
Blood glucose ([4]; Day 0, s.c. 2 × daily): 19.9 ± 1.2 mmol/L
Blood glucose ([4]; Day 7, s.c. 2 × daily): 17.2 ± 1.3 mmol/L
Blood glucose ([4]; Day 14, s.c. 2 × daily): 16.2 ± 1.8 mmol/L
Blood glucose ([4]; Day 21, s.c. 2 × daily): 19.2 ± 3.0 mmol/L
